Target: heat shock protein 90 (HSP90), endogenous, rat heart (rat, UniProt P82995 2-733, limits assumed)
Test: co-immunoprecipitation and western blot, mitochondria of rat hearts after IR with or without 1 µM ψεHSP90 peptide
Description: 200-500 μg of mitochondrial or cytosolic protein was diluted into 1 ml of IP Lysis Buffer (150 mM NaCl, 10 mM Tris-HCl, 5 mM EDTA, 0.1% Triton X-100, pH=7.4, containing Sigma Protease Inhibitor 1 and Sigma Phosphatase Inhibitors 1 and 2). […] 10 μg of Protein A/G Beads (Santa Cruz Biotechnology) were added and the mixture was incubated overnight at 4° C. with inversion mixing. Beads were then centrifuged, washed 3× in IP Lysis Buffer, then re-suspended in sample buffer. Immunoprecipitated proteins were separated on 10% SDS-PAGE gels. […] A beads alone group was also included for each sample set to assess any non-specific protein binding to the beads.

B1: epsilon protein kinase C (εPKC), endogenous, rat heart (enzyme)
chain: MVVFNGLLKIKICEAVSLKPTAWSLRHAVGPRPQTFLLDPYIALNVDDSRIGQTATKQKTNSPAWHDEFVTDVCNGRKIELAVFHDAPIGYDDFVANCTIQFEELLQNGSRHFEDWIDLEPEGKVYVIIDLSGSSGEAPKDNEERVFRERMRPRKRQGAVRRRVHQVNGHKFMATYLRQPTYCSHCRDFIWGVIGKQGYQCQVCTCVVHKRCHELIITKCAGLKKQETPDEVGSQRFSVNMPHKFGIHNYKVPTFCDHCGSLLWGLLRQGLQCKVCKMNVHRRCETNVAPNCGVDARGIAKVLADLGVTPDKITNSGQRRKKLAAGAESPQPASGNSPSEDDRSKSAPTSPCDQELKELENNIRKALSFDNRGEEHRASSSTDGQLASPGENGEVRQGQAKRLGLDEFNFIKVLGKGSFGKVMLAELKGKDEVYAVKVLKKDVILQDDDVDCTMTEKRILALARKHPYLTQLYCCFQTKDRLFFVMEYVNGGDLMFQIQRSRKFDEPRSGFYAAEVTSALMFLHQHGVIYRDLKLDNILLDAEGHSKLADFGMCKEGILNGVTTTTFCGTPDYIAPEILQELEYGPSVDWWALGVLMYEMMAGQPPFEADNEDDLFESILHDDVLYPVWLSKEAVSILKAFMTKNPHKRLGCVAAQNGEDAIKQHPFFKEIDWVLLEQKKMKPPFKPRIKTKRDVNNFDQDFTREEPILTLVDEAIVKQINQEEFKGFSYFGEDLMP
notes: Endogenous protein in mitochondrial or cytosolic fractions of Wistar rat hearts, immunoprecipitated from lysate; also called PKCε; epsilon PKC
**Q.** How did the “fold increase in co-immunoprecipitation with ψεHSP90 peptide treatment against IR alone” value turn out when B1 was run?
**A.** ~4 fold

From patent publication US20100048482A1 (Stanford University, published 2010)
